Source: the supplement of paper PMC9732359
± gives the uncertainty stated by the source.

Experiment: protein stability index of a GFP-peptide fusion (yeast GPS) (PSI 1-4); higher = more stable; sorted into four equal gates, so the index is relative within each strain
Summary of the method: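 Sequencing reads from sorted gates were used to score each peptide. The library consisted of tiled 17-residue yeast protein peptides fused downstream of GFP on a Cherry-expressing plasmid, pooled and carried in yeast. Mid-log cultures in leucine-free medium were split into four equal gates by GFP/Cherry ratio, and each gate's plasmids were PCR-amplified and Illumina-sequenced. The protein stability index adds up, over all gates, the read frequency multiplied by the gate number.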

Sequence	protein stability index (doa10∆)	protein stability index (pdr5∆)	protein stability index (san1∆)	protein stability index (ubr1∆)
KRYRLKESQLPRIQRAD [RPB5]	2.86 ± 0.17	3.16 ± 0.15	3.02 ± 0.1	3.07 ± 0.082
YVAIVVDPLKSLEDKIL [RRI1]	1.12 ± 0.069	1.38 ± 0.07		1.68 ± 0.081
RRKDTSMVLFFVCLSCS [RPB9]	1.3 ± 0.052	1.32 ± 0.07	1.4 ± 0.12	1.38 ± 0.039
NENDKIYLLFQSSGKLK [YDL116W/NUP84]	2.43 ± 0.049	2.5 ± 0.049	2.44 ± 0.048	2.72 ± 0.034
EPDRDENWIHVSCLSFM [LIN1]	3.12 ± 0.051	3.07 ± 0.042	3.08 ± 0.042	3.11 ± 0.036
AKINEVYNNSKDEYLAQ [NSL1]	2.83 ± 0.047	3.06 ± 0.043	2.77 ± 0.048	2.75 ± 0.037
SSISVMGENEKPDVTYA [RPT3]	2.92 ± 0.2	3.25 ± 0.1	3.12 ± 0.11	3.27 ± 0.083
MVSTPELKKYMDKKILL [SMX2]	3.25 ± 0.15	3.62 ± 0.12	3.26 ± 0.092	3 ± 0.074
DKILQLNDRFQTLSSHL [PGD1]	2.46 ± 0.048	2.66 ± 0.042	2.55 ± 0.051	2.46 ± 0.058
QITIEPGVDVEVVVASN [RPS20]	2.53 ± 0.061	2.57 ± 0.099	3.01 ± 0.098	2.51 ± 0.066
LKKLQSDIESANNQEYD [SMC1]	3.19 ± 0.076	3.2 ± 0.097	3.16 ± 0.062	3.13 ± 0.076
NNSTGIANDNVITPHFI [SWI1]	2.69 ± 0.041	2.95 ± 0.042	2.86 ± 0.031	2.9 ± 0.033
QILIFAADTSIVEQDKS [YJL039C/NUP192]	2.04 ± 0.13	2.44 ± 0.21	2.45 ± 0.18	2.54 ± 0.25
TVIPEDEEIIQLHFSLL [RPO21]	2.64 ± 0.06	2.98 ± 0.067	2.98 ± 0.057	2.56 ± 0.086
AAGKRISHIEKRIESLQ [SMC1]	3.09 ± 0.099	3.07 ± 0.096	2.93 ± 0.073	3.08 ± 0.095
HEKIEDEDEDNDLDEDD [RPN4]	3.56 ± 0.2	3.44 ± 0.09	3.55 ± 0.086	3.45 ± 0.11
QHHVTDADKLSFNCENF [YML031W/NDC1]	2.45 ± 0.065	2.28 ± 0.053	2.3 ± 0.058	2.2 ± 0.058
VEASRRRRSSTNKSKRP [MED1]	3.19 ± 0.066	3.31 ± 0.056	3.22 ± 0.044	3.28 ± 0.043
EHKPVSPDKIGTFTADY [SSN2]	2.98 ± 0.071	3.15 ± 0.051	2.9 ± 0.058	3.09 ± 0.048
VSKPSLLHETNDSFKGL [PRP8]		2.74 ± 0.13		2.99 ± 0.097

Sequence	protein stability index (doa10∆)	protein stability index (pdr5∆)	protein stability index (san1∆)	protein stability index (ubr1∆)
MTEDIEQKKTATEVTPQ [RPC19]	2.8 ± 0.12	3.2 ± 0.093	3.1 ± 0.098	3.28 ± 0.11
IHEIRLNTLNNVVEIWV [SIR3]	1.38 ± 0.051	1.44 ± 0.046	1.46 ± 0.086	1.55 ± 0.038
VIEQCYLKFIPLKRAIW [SRB8]	1.5 ± 0.053	1.69 ± 0.059	1.4 ± 0.099	1.32 ± 0.042
NVAVDIINFGEIEQNTE [RPN10]	3.23 ± 0.092	3.39 ± 0.075	3.27 ± 0.059	3.14 ± 0.066
TAEFGKILAGLHDTQIE [RPN10]	3.23 ± 0.11	3.44 ± 0.11	3.13 ± 0.14	3.02 ± 0.1
EKSTQLQQKHELDTASR [YGR119C/NUP57]	2.95 ± 0.044	3.06 ± 0.039	2.85 ± 0.029	3.21 ± 0.031
KKMGVPYAIIKGKARLG [RPL8B]	2.15 ± 0.15	2.12 ± 0.15	2.11 ± 0.17	3.41 ± 0.28
PGEYITTIKAIFDGNYG [YMR129W/POM152]	2.62 ± 0.066	2.72 ± 0.071	2.77 ± 0.069	2.95 ± 0.07
SQTTQLAGMDVEDALDK [FAS2]	3.31 ± 0.094	3.47 ± 0.11	3.31 ± 0.083	3.62 ± 0.071
RRDDEVLVVRGSKKGQE [RPL26A]	3.63 ± 0.087	3.36 ± 0.089	3.59 ± 0.079	3.57 ± 0.085
GIGGDHAKFSPVSTASY [RPC40]	2.59 ± 0.079	2.9 ± 0.12	2.28 ± 0.098	2.9 ± 0.062
DLRIRIKLDIVVGQNQL [SNF5]	1.38 ± 0.088	1.38 ± 0.086	1.67 ± 0.1	1.75 ± 0.071
EEKEKEQSKEVGDVVGG [BRN1]	3.29 ± 0.091	3.52 ± 0.1	3.29 ± 0.067	3.34 ± 0.075
QAQAQVYAQQSTVQTPI [PGD1]	2.8 ± 0.052	2.91 ± 0.055	2.83 ± 0.048	2.95 ± 0.059
HNLHPQIGQVPLAPAPI [SNF5]	2.54 ± 0.062	2.23 ± 0.065	2.56 ± 0.059	2.76 ± 0.063
NTSSKRQKKKPTSAQKS [IRR1]	2.71 ± 0.084	2.59 ± 0.08	2.5 ± 0.061	2.87 ± 0.07
HPGFGCWLSSVDVNTQK [RPN11]	1.25 ± 0.23	1.25 ± 0.24		
PFILEYDLMAPNGHIST [YMR129W/POM152]	2.94 ± 0.12	3 ± 0.17		3.05 ± 0.097
GLNNDFLFQNINFERID [GRR1]	2.09 ± 0.05	2.16 ± 0.057	2.19 ± 0.055	2.12 ± 0.042
